Publication PMC7784741 (Protein Science : A Publication of the Protein Society, 2020)

Target: YAP-binding domain of human TEAD4, TEAD4 217-434 (human, UniProt Q15561 217-434, biotin (N-biotinylated Avi tag))
Experiment: AlphaScreen or HTRF

Sequence of YAP-binding domain of human TEAD4, TEAD4 217-434 (Q15561 217-434): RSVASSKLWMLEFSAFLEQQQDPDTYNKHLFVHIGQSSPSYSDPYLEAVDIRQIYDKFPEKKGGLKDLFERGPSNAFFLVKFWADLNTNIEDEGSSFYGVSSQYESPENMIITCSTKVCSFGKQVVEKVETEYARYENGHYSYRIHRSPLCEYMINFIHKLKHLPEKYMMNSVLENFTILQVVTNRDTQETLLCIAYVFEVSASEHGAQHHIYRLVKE

B1: YAP 60-100 (partner of TEAD4 in the TR-FRET assay) (peptide)
peptide: DSETDLEALFNAVMNPKTANVPQTVPMRLRKLPDSFFKPPE
- binding result: binds
